Our source for the Km values is ChEMBL document CHEMBL1122571, “Design and synthesis of tetrahedral intermediate analogues as potential dihydroorotase inhibitors” (J Med Chem, 1984).

In general, Km refers to the substrate concentration at which the rate is half of its maximum.

The series has as its system O=C1CC(C(=O)O)NC(=O)N1. Briefly: Compound was evaluated for the inhibition of dihydroorotase enzyme from mouse Ehrlich ascites at the concentration of 10 uM and at pH 7.37.

On to “Multifunctional protein CAD (Mus musculus), B2RQC6”, for which the Km was determined as 4 µM.
